Results: paper doi:10.1101/2025.06.29.662183

Molecular target: CHIKV nsP2 protease (Chikungunya virus)
Test: BLI

pantinin-1 (peptide)
Kd: 9.29 µM
